Source: paper doi:10.1101/2022.11.07.515429 (bioRxiv, 2022)

Biological target: T1, Strep-PRP5 (human, UniProt Q7L014 1-1031)
T1 sequence: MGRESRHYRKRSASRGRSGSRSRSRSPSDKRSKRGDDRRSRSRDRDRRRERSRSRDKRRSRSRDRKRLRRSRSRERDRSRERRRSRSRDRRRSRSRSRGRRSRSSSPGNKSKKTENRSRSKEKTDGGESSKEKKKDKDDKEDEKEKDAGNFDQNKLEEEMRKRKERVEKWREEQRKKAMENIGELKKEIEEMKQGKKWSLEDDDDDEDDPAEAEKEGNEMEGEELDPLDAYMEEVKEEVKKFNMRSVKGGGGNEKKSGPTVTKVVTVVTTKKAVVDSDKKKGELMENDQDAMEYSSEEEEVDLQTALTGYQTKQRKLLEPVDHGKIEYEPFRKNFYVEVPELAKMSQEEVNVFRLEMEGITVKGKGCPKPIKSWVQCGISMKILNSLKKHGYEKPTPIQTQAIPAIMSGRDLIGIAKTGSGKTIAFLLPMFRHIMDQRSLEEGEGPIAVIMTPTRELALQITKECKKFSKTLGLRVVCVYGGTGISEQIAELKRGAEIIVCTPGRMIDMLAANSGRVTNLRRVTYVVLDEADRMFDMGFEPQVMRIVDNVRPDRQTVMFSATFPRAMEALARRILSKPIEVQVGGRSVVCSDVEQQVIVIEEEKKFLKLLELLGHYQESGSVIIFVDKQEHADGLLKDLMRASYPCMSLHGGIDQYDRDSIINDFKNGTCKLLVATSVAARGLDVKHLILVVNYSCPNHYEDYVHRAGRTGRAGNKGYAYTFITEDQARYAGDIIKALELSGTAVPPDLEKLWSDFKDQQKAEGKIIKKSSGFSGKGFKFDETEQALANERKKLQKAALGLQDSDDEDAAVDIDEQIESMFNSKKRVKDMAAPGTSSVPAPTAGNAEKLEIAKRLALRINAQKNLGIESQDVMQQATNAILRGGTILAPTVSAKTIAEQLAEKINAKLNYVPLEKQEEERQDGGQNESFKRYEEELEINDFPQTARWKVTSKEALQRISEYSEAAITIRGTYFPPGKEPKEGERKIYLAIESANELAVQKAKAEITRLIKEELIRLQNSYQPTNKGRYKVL
Assay: pull-down

relative binding ratio (pulldown over input, normalised to WT): 64 percent
B1: Flag-tagged SF3B1 K700E (natural protein, human, UniProt O75533 1-1304, looked up)
chain: MAKIAKTHEDIEAQIREIQGKKAALDEAQGVGLDSTGYYDQEIYGGSDSRFAGYVTSIAATELEDDDDDYSSSTSLLGQKKPGYHAPVALLNDIPQSTEQYDPFAEHRPPKIADREDEYKKHRRTMIISPERLDPFADGGKTPDPKMNARTYMDVMREQHLTKEEREIRQQLAEKAKAGELKVVNGAAASQPPSKRKRRWDQTADQTPGATPKKLSSWDQAETPGHTPSLRWDETPGRAKGSETPGATPGSKIWDPTPSHTPAGAATPGRGDTPGHATPGHGGATSSARKNRWDETPKTERDTPGHGSGWAETPRTDRGGDSIGETPTPGASKRKSRWDETPASQMGGSTPVLTPGKTPIGTPAMNMATPTPGHIMSMTPEQLQAWRWEREIDERNRPLSDEELDAMFPEGYKVLPPPAGYVPIRTPARKLTATPTPLGGMTGFHMQTEDRTMKSVNDQPSGNLPFLKPDDIQYFDKLLVDVDESTLSPEEQKERKIMKLLLKIKNGTPPMRKAALRQITDKAREFGAGPLFNQILPLLMSPTLEDQERHLLVKVIDRILYKLDDLVRPYVHKILVVIEPLLIDEDYYARVEGREIISNLAKAAGLATMISTMRPDIDNMDEYVRNTTARAFAVVASALGIPSLLPFLKAVCKSKKSWQARHTGIKIVQQIAILMGCAILPHLRSLVEIIEHGLVDEQQEVRTISALAIAALAEAATPYGIESFDSVLKPLWKGIRQHRGKGLAAFLKAIGYLIPLMDAEYANYYTREVMLILIREFQSPDEEMKKIVLKVVKQCCGTDGVEANYIKTEILPPFFKHFWQHRMALDRRNYRQLVDTTVELANKVGAAEIISRIVDDLKDEAEQYRKMVMETIEKIMGNLGAADIDHKLEEQLIDGILYAFQEQTTEDSVMLNGFGTVVNALGKRVKPYLPQICGTVLWRLNNKSAKVRQQAADLISRTAVVMKTCQEEKLMGHLGVVLYEYLGEEYPEVLGSILGALKAIVNVIGMHKMTPPIKDLLPRLTPILKNRHEKVQENCIDLVGRIADRGAEYVSAREWMRICFELLELLKAHKKAIRRATVNTFGYIAKAIGPHDVLATLLNNLKVQERQNRVCTTVAIAIVAETCSPFTVLPALMNEYRVPELNVQNGVLKSLSFLFEYIGEMGKDYIYAVTPLLEDALMDRDLVHRQTASAVVQHMSLGVYGFGCEDSLNHLLNYVWPNVFETSPHVIQAVMGALEGLRVAIGPCRMLQYCLQGLFHPARKVRDVYWKIYNSIYIGSQDALIAHYPRIYNDDKNTYIRYELDYIL
